According to article doi:10.1101/2023.06.15.545061:

Target: biotinylated 10-mer C-terminal PBM peptide of DGKζ (human) (UniProt Q13574)
Sequence (Q13574 whole entry, looked up, tested part not stated): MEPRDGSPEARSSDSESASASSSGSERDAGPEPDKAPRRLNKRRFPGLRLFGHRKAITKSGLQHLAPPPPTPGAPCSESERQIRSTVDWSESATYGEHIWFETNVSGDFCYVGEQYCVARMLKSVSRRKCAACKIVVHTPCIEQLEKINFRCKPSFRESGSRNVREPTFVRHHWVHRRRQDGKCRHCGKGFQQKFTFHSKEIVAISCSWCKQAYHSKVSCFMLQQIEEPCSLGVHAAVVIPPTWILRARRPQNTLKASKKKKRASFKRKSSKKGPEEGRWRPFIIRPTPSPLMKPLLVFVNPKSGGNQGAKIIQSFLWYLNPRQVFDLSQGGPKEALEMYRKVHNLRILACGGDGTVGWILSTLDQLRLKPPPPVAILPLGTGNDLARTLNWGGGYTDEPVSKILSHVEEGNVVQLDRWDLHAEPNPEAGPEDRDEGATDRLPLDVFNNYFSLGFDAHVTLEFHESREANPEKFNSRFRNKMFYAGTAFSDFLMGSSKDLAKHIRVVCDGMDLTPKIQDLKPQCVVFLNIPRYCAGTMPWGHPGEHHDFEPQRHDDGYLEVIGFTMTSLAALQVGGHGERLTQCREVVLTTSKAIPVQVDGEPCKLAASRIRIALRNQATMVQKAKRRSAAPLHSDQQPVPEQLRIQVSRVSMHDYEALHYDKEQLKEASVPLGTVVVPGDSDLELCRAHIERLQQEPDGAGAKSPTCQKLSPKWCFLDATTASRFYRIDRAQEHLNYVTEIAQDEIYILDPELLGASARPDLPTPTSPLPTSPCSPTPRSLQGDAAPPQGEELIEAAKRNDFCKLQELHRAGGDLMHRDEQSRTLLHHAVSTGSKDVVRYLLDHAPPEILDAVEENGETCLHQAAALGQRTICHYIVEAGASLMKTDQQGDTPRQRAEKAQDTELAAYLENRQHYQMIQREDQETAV

SCRIB
Kd: 24 µM
